Assay results from patent publication US20110183902A1.

Target: mouse GCG-R (in pancreatic islets of mice) (mouse) (UniProt Q61606)
Test: cell-based or functional assay

mouse GCG-R (in pancreatic islets of mice) (mouse), sequence (Q61606 27-485): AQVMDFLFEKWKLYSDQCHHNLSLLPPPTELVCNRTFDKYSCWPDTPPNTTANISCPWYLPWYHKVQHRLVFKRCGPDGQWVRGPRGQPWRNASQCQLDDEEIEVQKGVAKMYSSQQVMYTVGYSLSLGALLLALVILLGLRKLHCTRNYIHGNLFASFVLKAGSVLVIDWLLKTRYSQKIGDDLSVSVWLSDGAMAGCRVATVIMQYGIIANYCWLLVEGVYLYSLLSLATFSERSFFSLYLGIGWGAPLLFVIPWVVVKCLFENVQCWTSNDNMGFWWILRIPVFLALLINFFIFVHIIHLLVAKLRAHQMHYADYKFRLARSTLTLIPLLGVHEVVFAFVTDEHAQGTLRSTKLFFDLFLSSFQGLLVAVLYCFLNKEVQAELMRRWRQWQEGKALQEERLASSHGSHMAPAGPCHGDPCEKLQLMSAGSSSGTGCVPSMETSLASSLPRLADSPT

- fold-increase in fractional GSIS, GCG-R-/- islets relative to WT: 32 % reduction
Substance: native OXM peptide (species not stated, Example 11)
